Reference: patent US20250304927A1, “PRO-PEPTIDE VARIANTS FOR MODULATING ACTIVITY OF TRANSGLUTAMINASES” (CURIE CO. INC., priority 2022, published 2025)

B1: SEQ ID NO: 4 (protein)
chain: MDNGAGEETKSYAETYRLTADDVLNINAETYRLTADDVRNINALNESAPAASSAGPSFRAP

Tests used:
[1] = target: T1, mature evolved transglutaminase (SEQ ID NO: 5) (Streptomyces mobaraensis, UniProt P81453, G359A/K167H/K227R/K228R/N358M/Q126S/Q150A/Q200L); test: transglutaminase thermostability: activity after being held at 37-50 °C; format: biochemical; design: key: The symbol, —, represents not determined, neutral, or reduced performance; settings: relative to wild-type pro-peptide; held at 37° C.-50° C. for 30 minutes, diluted 10-fold to 100-fold
T1 construct: hexa-His tag with two amino acid linker (C); made in house; host or cells: E. coli BL21 (DE3)
Procedure: The terms “stability” and “thermostability” are used interchangeably to refer to increased residual activity of mature transglutaminase after incubation at elevated temperatures. In some embodiments, a pro-peptide variant increases the stability of a mature transglutaminase compared to the wild type pro-peptide. Measurement of stability is depicted in Example 4.
It is believed that these pro-peptide variants confer thermal stability to mature transglutaminase.

[2] = target: evolved variant of mature Streptomyces mobaraensis transglutaminase, including a two amino acid linker and hexa-his tag (Streptomyces mobaraensis) (UniProt P81453); test: cell-based or functional assay
[3] = target: T1, mature evolved transglutaminase (SEQ ID NO: 5); test: casein assay, inhibition by pro-peptide variants (Method B, activated zymogen); format: biochemical; design: key: The symbol, —, represents not determined, neutral, or reduced performance; settings: relative to wild-type pro-peptide, diluted approximately 20-fold into casein assay solution
Description: Method B. The gene coding for a Pro-transglutaminase (i.e., zymogen form of transglutaminase) variant with the wild-type pro-domain (SEQ ID NO: 2) and an evolved mature domain including a C-terminal His tag (SEQ ID NO: 5), and was cloned into a pET vector operatively linked to the T7 promoter. The expression vector also contains the pMB1 origin of replication and a kanamycin resistance gene. The resulting plasmid was transformed first into E. coli DH-10B, using standard methods known in the art. […]
(§1) A secondary screen was performed to determine initial rate of transglutaminase in the presence of the pro-peptide variants using transglutaminase-catalyzed labeling of casein with dansylcadaverine (e.g., a commercially available kit such as the Transglutaminase Fluorogenic Activity Assay Kit, T036, Zedira, Germany). Transglutaminase activity was monitored by measuring the fluorescence (excitation wavelength 332 nm; emission wavelength 500 nm) using a BioTek Synergy H1 microplate reader. Transglutaminase-catalyzed covalent coupling (crosslinking) of monodansylcadaverine with N,N-dimethylcasein produces a product that causes a shift in intensity and wavelength of fluorescence of the dansyl group now linked to the casein. The relative transglutaminase activity is shown by increase of fluorescence intensity over time. […]

[4] = target: T2, thermostable mature transglutaminase variant (SEQ ID NO: 3) (Streptomyces mobaraensis, UniProt P81453); test: pH-responsiveness screen: casein/dansylcadaverine assay at pH 6.0 and pH 8.0 in the presence of pro-peptide variants (Method A); format: biochemical; settings: casein assay
T2 construct: made in house; host or cells: E. coli (lysate)
Description: (§2) Method A. A bicistronic expression vector encoding the wild-type pro-domain of transglutaminase (SEQ ID NO: 2) and a thermostable mature transglutaminase variant (SEQ ID NO: 3) as separate polypeptides was cloned as described in PCT/US20/49226 (WO2021/178001 A1). The vector was used as a template for synthesis of a random mutagenesis library targeting the pro-domain coding sequence to create pro-domain peptide variants.
Method A. Plasmid libraries containing mature transglutaminase and variant pro-domain peptides were plated on Luria-Bertani (LB) agar plates containing 50 μg/mL of kanamycin. […]
as §1, with “casein.” for “casein. The relative transglutaminase activity is shown by increase of fluorescence intensity over time.”

[5] = target: T2, thermostable mature transglutaminase variant (SEQ ID NO: 3); format: biochemical; settings: casein assay; Method A
Description: as §2
Method A. Plasmid libraries containing mature transglutaminase and variant pro-domain peptides were plated on Luria-Bertani (LB) agar plates containing 50 μg/mL of kanamycin. After incubation for at least 16 hours at 37° C., colonies were picked and inoculated into 1 mL of LB broth with 50 μg/mL kanamycin in one well of a 96 deep well culture plate. The plate was covered with a breathable seal and incubated overnight at 37° C. with 400 rpm of shaking. 10 μL of the seed culture was used to inoculate 1 mL of media in a 96 deep well culture plate for expression. The expression plate was allowed to grow for 6-8 hours at 30° C. Expression was then induced by adding isopropyl beta-D-1-thiogalactopyranoside (IPTG) to a final concentration of 1 mM and the temperature was reduced to 20° C. while growth continued for an additional 15 hours. Cells were harvested by centrifugation at 4000 rcf for 30 minutes and pellets were frozen at −80° C.
as §1, with “time. The data were normalized for transglutaminase expression levels in E. coli lysate as described above. Pro-domain variants were identified based on their ability to alter the activity of the mature transglutaminase enzyme.” for “time.”
It is believed that these pro-peptide variants have reduced binding affinity with mature mTgase.

T1 sequence (P81453 other isoform, or with tags, fused parts or gaps Q126S/Q150A/K167H/Q200L/K227R/K228R/N358M/G359A): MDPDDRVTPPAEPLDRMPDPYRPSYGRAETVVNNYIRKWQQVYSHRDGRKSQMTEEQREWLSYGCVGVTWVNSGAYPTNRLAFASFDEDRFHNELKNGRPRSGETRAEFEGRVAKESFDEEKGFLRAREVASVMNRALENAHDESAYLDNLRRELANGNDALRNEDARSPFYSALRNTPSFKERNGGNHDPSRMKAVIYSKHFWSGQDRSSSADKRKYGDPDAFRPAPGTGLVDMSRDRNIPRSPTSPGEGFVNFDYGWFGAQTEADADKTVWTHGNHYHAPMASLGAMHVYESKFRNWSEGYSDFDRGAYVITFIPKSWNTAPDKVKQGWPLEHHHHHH
T2 sequence (P81453 other isoform, or with tags, fused parts or gaps): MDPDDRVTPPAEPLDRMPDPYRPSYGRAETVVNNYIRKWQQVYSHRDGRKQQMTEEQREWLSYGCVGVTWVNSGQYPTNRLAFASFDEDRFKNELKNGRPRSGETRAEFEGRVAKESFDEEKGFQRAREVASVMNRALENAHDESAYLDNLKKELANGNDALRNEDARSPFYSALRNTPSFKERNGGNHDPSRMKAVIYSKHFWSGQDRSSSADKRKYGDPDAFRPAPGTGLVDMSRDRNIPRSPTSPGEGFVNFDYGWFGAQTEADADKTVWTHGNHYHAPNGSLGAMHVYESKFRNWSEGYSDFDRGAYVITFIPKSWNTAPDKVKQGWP

Molecule	Thermostability [1]	other results
D2S, E7S, D21I: combination variant of pro-peptide SEQ ID NO: 2, Method B (MSNGAGSETKSYAETYRLTAIDVANINALNESAPAASSAGPSFRAP)	—	
E7S, D21R: combination variant of pro-peptide SEQ ID NO: 2, Method B (MDNGAGSETKSYAETYRLTARDVANINALNESAPAASSAGPSFRAP)	—	
D2S, E7S, D22Q: combination variant of pro-peptide SEQ ID NO: 2, Method B (MSNGAGSETKSYAETYRLTADQVANINALNESAPAASSAGPSFRAP)	—	
D2I, D21T, D22Q: combination variant of pro-peptide SEQ ID NO: 2, Method B (MINGAGEETKSYAETYRLTATQVANINALNESAPAASSAGPSFRAP)	—	
D21T, D22Q: combination variant of pro-peptide SEQ ID NO: 2, Method B (MDNGAGEETKSYAETYRLTATQVANINALNESAPAASSAGPSFRAP)	—	
pro-peptide variant D2I, E2S, D21T (Method B)		Inhibition [2]: > 2 fold
D2S, E7S: combination variant of pro-peptide SEQ ID NO: 2, Method B (MSNGAGSETKSYAETYRLTADDVANINALNESAPAASSAGPSFRAP)	—	
D21T: substitution variant of pro-peptide SEQ ID NO: 2 (MDNGAGEETKSYAETYRLTATDVANINALNESAPAASSAGPSFRAP) [Variant D21T]		Inhibition [3]: —
D2S, E7S, D21T, D22Q: combination variant of pro-peptide SEQ ID NO: 2, Method B (MSNGAGSETKSYAETYRLTATQVANINALNESAPAASSAGPSFRAP)	—	
E7S, L18V, D21R: combination variant of pro-peptide SEQ ID NO: 2, Method B (MDNGAGSETKSYAETYRVTARDVANINALNESAPAASSAGPSFRAP)	—	
L18V, D21T: combination variant of pro-peptide SEQ ID NO: 2, Method B (MDNGAGEETKSYAETYRVTATDVANINALNESAPAASSAGPSFRAP)	—	
D2I, D22Q: combination variant of pro-peptide SEQ ID NO: 2, Method B (MINGAGEETKSYAETYRLTADQVANINALNESAPAASSAGPSFRAP)	—	
D2S, D22Q: combination variant of pro-peptide SEQ ID NO: 2, Method B (MSNGAGEETKSYAETYRLTADQVANINALNESAPAASSAGPSFRAP)	—	
E7S, L18V, D21I: combination variant of pro-peptide SEQ ID NO: 2, Method B (MDNGAGSETKSYAETYRVTAIDVANINALNESAPAASSAGPSFRAP)	—	
D2F: substitution variant of pro-peptide SEQ ID NO: 2 (MFNGAGEETKSYAETYRLTADDVANINALNESAPAASSAGPSFRAP) [Variant D2F]	—	
E7S, D21T: combination variant of pro-peptide SEQ ID NO: 2, Method B (MDNGAGSETKSYAETYRLTATDVANINALNESAPAASSAGPSFRAP)	—	
D2I, E2S, D21T: combination variant of pro-peptide SEQ ID NO: 2, Method B; E2S probably E7S (MINGAGSETKSYAETYRLTATDVANINALNESAPAASSAGPSFRAP)	—	Inhibition [3]: >2 fold
D2I, E7S, D21I: combination variant of pro-peptide SEQ ID NO: 2, Method B (MINGAGSETKSYAETYRLTAIDVANINALNESAPAASSAGPSFRAP)	—	
D2I, E7S, L18V, D21R: combination variant of pro-peptide SEQ ID NO: 2, Method B (MINGAGSETKSYAETYRVTARDVANINALNESAPAASSAGPSFRAP)	—	
L18V, D21T, D22Q: combination variant of pro-peptide SEQ ID NO: 2, Method B (MDNGAGEETKSYAETYRVTATQVANINALNESAPAASSAGPSFRAP)	—	
D2S, D21T, D22Q: combination variant of pro-peptide SEQ ID NO: 2, Method B (MSNGAGEETKSYAETYRLTATQVANINALNESAPAASSAGPSFRAP)	—	
B1		activity at pH 6.0 relative to pH 8.0 compared to the wild-type pro-peptide [4]: increase in activity at pH 6.0 relative to pH 8.0 compared to the wild-type pro-peptide; transglutaminase activity relative to the wild-type pro-peptide [5]: decrease in transglutaminase activity relative to the wild-type pro-peptide
